B1: BsAb2-5 (C8 scFv fused to the N-terminal of the heavy chain of the murine anti-CD3 mAb) (bispecific antibody)
chain 1: not shown
chain 2: QAVVTQESALTTSPGETVTLTCRSSTGAVTTSNYANWVQEKPDHLFTGLIGGTNKRAPGVPARFSGSLIGDKAALTITGAQTEDEAIYFCALWYSNLWVFGGGTKLTVLRTVAAPSVFIFPPSDEQLKSGTASVVCLLNNFYPREAKVQWKVDNALQSGNSQESVTEQDSKDSTYSLSSTLTLSKADYEKHKVYACEVTHQGLSSPVTKSFNRGEC
B2: BsAb2-6-001 (bispecific antibody)
heavy: not shown
light: QTVVTQEPSLTVSPGGTVTLTCRSSTGAVTTSNYANWVQQKPGQAPRALIGGTNKRAPWTPARFSGSLLGDKAALTLSGVQPEDEAEYYCALWYSNLWVFGGGTKLTVLRTVAAPSVFIFPPSDEQLKSGTASVVCLLNNFYPREAKVQWKVDNALQSGNSQESVTEQDSKDSTYSLSSTLTLSKADYEKHKVYACEVTHQGLSSPVTKSFNRGEC
notes: also called VH1VL1; SCG2-6-001
B3: BsAb2-6-011 (bispecific antibody)
heavy: not shown
light: QTVVTQEPSLTVSPGGTVTLTCRSSTGAVTTSNYANWVQQKPGQAPRALIGGTNKRAPWTPARFSGSLLGDKAALTLSGVQPEDEAEYYCALWYSNLWVFGGGTKLTVLRTVAAPSVFIFPPSDEQLKSGTASVVCLLNNFYPREAKVQWKVDNALQSGNSQESVTEQDSKDSTYSLSSTLTLSKADYEKHKVYACEVTHQGLSSPVTKSFNRGEC
notes: also called VH3VL1; SCG2-6-011
B4: BsAb2-6-016 (bispecific antibody)
heavy: not shown
light: QTVVTQEPSLTVSPGGTVTLTCRSSTGAVTTSNYANWVQQKPGQAPRALIGGTNKRAPWTPARFSGSLLGDKAALTLSGVQPEDEAEYYCALWYSNLWVFGGGTKLTVLRTVAAPSVFIFPPSDEQLKSGTASVVCLLNNFYPREAKVQWKVDNALQSGNSQESVTEQDSKDSTYSLSSTLTLSKADYEKHKVYACEVTHQGLSSPVTKSFNRGEC
notes: also called VH4VL1; SCG2-6-016
B5: BsAb2-6-021 (bispecific antibody)
heavy: not shown
light: QTVVTQEPSLTVSPGGTVTLTCRSSTGAVTTSNYANWVQQKPGQAPRALIGGTNKRAPWTPARFSGSLLGDKAALTLSGVQPEDEAEYYCALWYSNLWVFGGGTKLTVLRTVAAPSVFIFPPSDEQLKSGTASVVCLLNNFYPREAKVQWKVDNALQSGNSQESVTEQDSKDSTYSLSSTLTLSKADYEKHKVYACEVTHQGLSSPVTKSFNRGEC
notes: also called VH5VL1; SCG2-6-021
B6: BsAb2-6-026 (bispecific antibody)
heavy: not shown
light: QTVVTQEPSLTVSPGGTVTLTCRSSTGAVTTSNYANWVQQKPGQAPRALIGGTNKRAPWTPARFSGSLLGDKAALTLSGVQPEDEAEYYCALWYSNLWVFGGGTKLTVLRTVAAPSVFIFPPSDEQLKSGTASVVCLLNNFYPREAKVQWKVDNALQSGNSQESVTEQDSKDSTYSLSSTLTLSKADYEKHKVYACEVTHQGLSSPVTKSFNRGEC
notes: also called VH6VL1; SCG2-6-026
B7: BsAb2-5-018 (bispecific antibody)
heavy: not shown
light: QAVVTQEPSLTVSPGGTVTLTCRSSTGAVTTSNYANWVQQKPGQAPRGLIGGTNKRAPGTPARFSGSLLGDKAALTLSGVQPEDEAEYFCALWYSNLWVFGGGTKLTVLRTVAAPSVFIFPPSDEQLKSGTASVVCLLNNFYPREAKVQWKVDNALQSGNSQESVTEQDSKDSTYSLSSTLTLSKADYEKHKVYACEVTHQGLSSPVTKSFNRGEC
notes: also called VH4VL3
B8: BsAb2-5-012 (bispecific antibody)
heavy: not shown
light: QTVVTQEPSLTVSPGGTVTLTCRSSTGAVTTSNYANWVQQKPGQAPRGLIGGTNKRAPGTPARFSGSLLGDKAALTLSGVQPEDEAEYYCALWYSNLWVFGGGTKLTVLRTVAAPSVFIFPPSDEQLKSGTASVVCLLNNFYPREAKVQWKVDNALQSGNSQESVTEQDSKDSTYSLSSTLTLSKADYEKHKVYACEVTHQGLSSPVTKSFNRGEC
notes: also called VH3VL2
B9: BsAb2-5-011 (bispecific antibody)
heavy: not shown
light: QTVVTQEPSLTVSPGGTVTLTCRSSTGAVTTSNYANWVQQKPGQAPRALIGGTNKRAPWTPARFSGSLLGDKAALTLSGVQPEDEAEYYCALWYSNLWVFGGGTKLTVLRTVAAPSVFIFPPSDEQLKSGTASVVCLLNNFYPREAKVQWKVDNALQSGNSQESVTEQDSKDSTYSLSSTLTLSKADYEKHKVYACEVTHQGLSSPVTKSFNRGEC
notes: also called VH3VL1; SCG2-5-011
B10: BsAb2-6-017 (bispecific antibody)
heavy: not shown
light: QTVVTQEPSLTVSPGGTVTLTCRSSTGAVTTSNYANWVQQKPGQAPRGLIGGTNKRAPGTPARFSGSLLGDKAALTLSGVQPEDEAEYYCALWYSNLWVFGGGTKLTVLRTVAAPSVFIFPPSDEQLKSGTASVVCLLNNFYPREAKVQWKVDNALQSGNSQESVTEQDSKDSTYSLSSTLTLSKADYEKHKVYACEVTHQGLSSPVTKSFNRGEC
notes: also called VH4VL2; SCG2-6-017
B11: BsAb2-6-018 (bispecific antibody)
heavy: not shown
light: QAVVTQEPSLTVSPGGTVTLTCRSSTGAVTTSNYANWVQQKPGQAPRGLIGGTNKRAPGTPARFSGSLLGDKAALTLSGVQPEDEAEYFCALWYSNLWVFGGGTKLTVLRTVAAPSVFIFPPSDEQLKSGTASVVCLLNNFYPREAKVQWKVDNALQSGNSQESVTEQDSKDSTYSLSSTLTLSKADYEKHKVYACEVTHQGLSSPVTKSFNRGEC
notes: also called VH4VL3
B12: BsAb2-5-013 (bispecific antibody)
heavy: not shown
light: QAVVTQEPSLTVSPGGTVTLTCRSSTGAVTTSNYANWVQQKPGQAPRGLIGGTNKRAPGTPARFSGSLLGDKAALTLSGVQPEDEAEYFCALWYSNLWVFGGGTKLTVLRTVAAPSVFIFPPSDEQLKSGTASVVCLLNNFYPREAKVQWKVDNALQSGNSQESVTEQDSKDSTYSLSSTLTLSKADYEKHKVYACEVTHQGLSSPVTKSFNRGEC
notes: also called VH3VL3
B13: BsAb2-6-006 (bispecific antibody)
heavy: not shown
light: QTVVTQEPSLTVSPGGTVTLTCRSSTGAVTTSNYANWVQQKPGQAPRALIGGTNKRAPWTPARFSGSLLGDKAALTLSGVQPEDEAEYYCALWYSNLWVFGGGTKLTVLRTVAAPSVFIFPPSDEQLKSGTASVVCLLNNFYPREAKVQWKVDNALQSGNSQESVTEQDSKDSTYSLSSTLTLSKADYEKHKVYACEVTHQGLSSPVTKSFNRGEC
notes: also called VH2VL1; SCG2-6-006
B14: BsAb2-6-015 (bispecific antibody)
heavy: not shown
light: QTVVTQEPSFSVSPGGTVTLTCRSSTGAVTTSNYANWVQQTPGQAPRGLIGGTNKRAPGVPDRFSGSILGDKAALTITGAQADDESDYYCALWYSNLWVFGGGTKLTVLRTVAAPSVFIFPPSDEQLKSGTASVVCLLNNFYPREAKVQWKVDNALQSGNSQESVTEQDSKDSTYSLSSTLTLSKADYEKHKVYACEVTHQGLSSPVTKSFNRGEC
notes: also called VH3VL5
B15: BsAb2-6-020 (bispecific antibody)
heavy: not shown
light: QTVVTQEPSFSVSPGGTVTLTCRSSTGAVTTSNYANWVQQTPGQAPRGLIGGTNKRAPGVPDRFSGSILGDKAALTITGAQADDESDYYCALWYSNLWVFGGGTKLTVLRTVAAPSVFIFPPSDEQLKSGTASVVCLLNNFYPREAKVQWKVDNALQSGNSQESVTEQDSKDSTYSLSSTLTLSKADYEKHKVYACEVTHQGLSSPVTKSFNRGEC
notes: also called VH4VL5

Legend:
[1] = biological target: T1, CD3ε expressed on the surface of Jurkat cells (human, UniProt P07766 23-207); test: flow cytometry on Jurkat cells (panel title: Binding with CD3+ T cell), MFI
T1 construct: whole, on cells; also called CD3 expressed on human leukemic T cell line Jurkat; hCD3ε

[2] = biological target: T2, HBsAg recombinant protein (hepatitis B virus); test: SPR (Biacore), bsAb on protein A chip, antigen in flow
T2 chain: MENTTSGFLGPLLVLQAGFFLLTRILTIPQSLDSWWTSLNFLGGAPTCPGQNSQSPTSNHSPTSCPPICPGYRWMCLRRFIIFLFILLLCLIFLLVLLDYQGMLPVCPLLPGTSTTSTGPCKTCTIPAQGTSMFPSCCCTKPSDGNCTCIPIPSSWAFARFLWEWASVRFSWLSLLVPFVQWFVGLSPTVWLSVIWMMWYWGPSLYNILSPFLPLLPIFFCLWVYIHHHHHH
Procedure: (§1) Binding affinity of anti-HBsAg/anti-CD3 constructs to HBsAg and human/cynomolgus CD3ε is characterized by SPR using Biacore […] (GE Healthcare). Specifically, the anti-HBsAg/anti-CD3 bispecific antibodies were immobilized on protein A chip at a flow rate of 10 μL/min, and gradient dilution of huCD3ε, cynoCD3ε, or HBsAg antigen was used as the mobile phase. The binding condition was 10 μL/min×180 s. The dissociation condition was 10 μL/min×400 s and the regeneration conditions were 30 μL/min×30 s at pH1.5 Gly. FIG. 10 and FIG. 11 show the kinetic curves of bsAb-2-5 and bsAb-2-6 constructs bind to human and cynomolgus CD3 recombinant proteins, respectively. FIG. 12 show the kinetic curves of bsAb2-5 and bsAb2-6 constructs bind to HBsAg.

[3] = biological target: T3, rhesus CD3ε recombinant protein (rhesus); test: ELISA, recombinant protein
T3 construct: also called rhesus CD38 [sic]
Procedure: (§2) Anti-HBsAg/anti-CD3 bispecific antibodies generated in Example 1 are analyzed by standard ELISA techniques for their binding properties to HBsAg, human CD3E, and rhesus CD3ε recombinant protein, respectively.

[4] = biological target: T2, HBsAg recombinant protein; test: ELISA, recombinant protein
Procedure: as §2

[5] = biological target: T4, human CD3ε recombinant protein (human, UniProt P07766 23-126); test: SPR (Biacore), bsAb on protein A chip, antigen in flow
T4 construct: also called human CD3E; huCD3ε
Procedure: as §1

[6] = biological target: T4, human CD3ε recombinant protein; test: ELISA, recombinant protein
Procedure: as §2

[7] = biological target: T5, cynomolgus CD3ε recombinant protein (cynomolgus, UniProt Q95LI5 22-117); test: SPR (Biacore), bsAb on protein A chip, antigen in flow
T5 construct: also called cynoCD3ε; cynomolgus CD38 [sic]
T5 sequence (looked up): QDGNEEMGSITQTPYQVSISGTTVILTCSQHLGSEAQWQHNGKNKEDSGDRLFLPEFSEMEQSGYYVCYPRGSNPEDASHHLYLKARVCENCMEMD
Procedure: as §1

T4 sequence (P07766 23-126 limits assumed): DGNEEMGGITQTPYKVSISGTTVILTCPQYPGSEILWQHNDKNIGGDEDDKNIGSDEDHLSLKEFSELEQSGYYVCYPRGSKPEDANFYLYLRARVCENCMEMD
T1 sequence (P07766 23-207): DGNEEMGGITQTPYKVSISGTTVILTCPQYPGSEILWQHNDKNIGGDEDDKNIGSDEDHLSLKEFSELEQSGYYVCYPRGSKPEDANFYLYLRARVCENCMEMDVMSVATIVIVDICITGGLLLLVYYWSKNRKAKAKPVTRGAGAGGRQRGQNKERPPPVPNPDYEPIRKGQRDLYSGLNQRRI

Binder | EC50 (read off the curve) [1] | Kd [2] | EC50 [3] | EC50 [4] | Kd [5] | EC50 [6] | Kd [7]
B1 | ~50 pM | – | – | – | – | – | –
B2 | – | 49.1 pM | 290 pM | 500 pM | – | – | –
B3 | – | 375 pM | 340 pM | 440 pM | 29200 pM | 660 pM | –
B4 | – | 54 pM | 360 pM | 710 pM | 35300 pM | 800 pM | 36000 pM
B5 | – | 348 pM | 830 pM | 800 pM | – | – | 148000 pM
B6 | – | 623 pM | 630 pM | 690 pM | – | – | 97400 pM
B7 | – | – | 240 pM | 120 pM | – | 330 pM | –
B8 | – | – | 240 pM | 160 pM | – | 320 pM | –
B9 | – | 93.2 pM | 1990 pM | 200 pM | 12400 pM | 1850 pM | –
B10 | – | 32.1 pM | 150 pM | 600 pM | 851 pM | 400 pM | 737 pM
B11 | – | – | 160 pM | 730 pM | – | 500 pM | –
B12 | – | – | 260 pM | 170 pM | – | 330 pM | –
B13 | – | 1.16 pM | 760 pM | 310 pM | – | – | 9230 pM
B14 | – | – | 180 pM | 330 pM | – | 190 pM | –
B15 | – | – | 120 pM | 560 pM | – | 320 pM | –

Source: patent US20250382352A1 (SCG CELL THERAPY PTE, published 2025)
